Experimental data as given in article PMC3081289.
Numbering of substitutions follows the chain as printed. In names and notes the source's numbering stands. Values belong to the binder of their own block, whether it stands above or below them.

Columns and labels:
[1] = biological target: T1, Vascular Endothelial Growth Factor (VEGF), receptor binding domain, VEGF_(8–109); test: SPR; conditions: chain shown with the change; for response (Response Units): 0.5 µM Fab, parent: est. 690, read off a plot
T1 chain: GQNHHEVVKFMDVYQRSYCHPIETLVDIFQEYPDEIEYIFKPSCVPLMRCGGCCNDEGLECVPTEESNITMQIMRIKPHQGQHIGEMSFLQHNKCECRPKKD

[2] = biological target: T1, Vascular Endothelial Growth Factor …; test: SPR (ΔG derived from KD); conditions: chain shown with the change; 30°C, phosphate buffer (pH 7.4); parent: est. -12 kcal/mol; read off a plot
[3] = biological target: T1, Vascular Endothelial Growth Factor …; test: calculated from ΔG (SPR) and ΔH (ITC); conditions: chain shown with the change; 30°C, phosphate buffer (pH 7.4); parent: est. -4.4 kcal/mol; read off a plot
[4] = 30°C, Fab over immobilized antigen

response (Response Units) [1]: 600 | Kd [1, 4]: 3 nM | koff [1, 4]: 10 10^-4 s-1 | dG [2]: -12 kcal/mol | other: -TΔS [3]: -3.7 kcal/mol
B1: bH1-44 Fab (affinity-improved variant of bH1) HC:R50A; HC:R58A (protein)
chain 1: EVQLVESGGGLVQPGGSLRLSCAASGFNISGTYIHWVRQAPGKGLEWVAAIYPSEGYTAYADSVKGRFTISADTSKNTAYLQMNSLRAEDTAVYYCSRWVGVGFYAMDYWGQGTLVTVSS
chain 2: DIQMTQSPSSLSASVGDRVTITCRASQNIAKTISGYVAWYQQKPGKAPKLLIYWGSFLYSGVPSRFSGSGSGTDFTLTISSLQPEDFATYYCQQHYSSPPTFGQGTKVEIK

response (Response Units) [1]: 60
B2: bH1-44 Fab (affinity-improved variant of bH1) LC:Y32A (protein)
chain 1: B1 chain 1 with A50R, A59R
chain 2: B1 chain 2 with Y36A
